Values of other authors as cited in patent US9180159B2, “Use of cell-permeable peptide inhibitors of the JNK signal transduction pathway for the treatment of chronic or non-chronic inflammatory digestive diseases” (Xigen Inflammation Ltd., priority 2008, dated 2015).

Tested on: Insulin producing TC-3 cells
Settings: previously shown (Ammendrup et al.); cited from earlier work

B1: JBD1-280: the GFP vector linked to the entire JBD (aa 1-280) (protein, UniProt Q9UQF2 1-280, looked up, fragment)
chain: MAERESGGLGGGAASPPAASPFLGLHIASPPNFRLTHDISLEEFEDEDLSEITDECGISLQCKDTLSLRPPRAGLLSAGGGGAGSRLQAEMLQMDLIDATGDTPGAEDDEEDDDEERAARRPGAGPPKAESGQEPASRGQGQSQGQSQGPGSGDTYRPKRPTTLNLFPQVPRSQDTLNNNSLGKKHSWQDRVSRSSSPLKTGEQTPPHEHICLSDELPPQSGPAPTTDRGTSTDSPCRRSTATQMAPPGGPPAAPPGGRGHSHRDRIHYQADVRLEATEE
modifications: fused to GFP
  block of IL1 induced pancreatic beta-cell apoptosis by transfection: blocked
